Like-named read-outs stand apart in the source and are kept apart here.
Key:
[1] = target: human EGFR on cells (human) (UniProt P00533)
[2] = target: human EGFRvIII on cells (human) (UniProt P00533); assay: FACS on CHO-K1-EGFRvIII 2G3 cells
[3] = target: Her2 protein (human) (UniProt P04626)
[4] = target: human EGFR on cells (human) (UniProt P00533); remark: listed apart in the source
[5] = target: human EGFR on cells (human) (UniProt P00533); remark: listed apart in the source
[6] = target: human EGFR on cells (human) (UniProt P00533); remark: listed apart in the source
[7] = target: human EGFRvIII on cells (human) (UniProt P00533)
[8] = target: human EGFR on cells (human) (UniProt P00533); remark: listed apart in the source
[9] = target: human EGFR-His-tagged fusion protein (human) (UniProt P00533)
[10] = target: human EGFR-His-tagged fusion protein (human) (UniProt P00533); remark: listed apart in the source
[11] = target: human EGFR-His-tagged fusion protein (human) (UniProt P00533); remark: listed apart in the source
[12] = target: human EGFRvIII-His tag protein (extracellular domain Leu25-Ser378) (human) (UniProt P00533)
[13] = target: monkey EGFR protein (commercial, SB, catalog number 90285-C08H) (monkey); assay: ELISA, coated monkey EGFR protein, antibody 100 nM
[14] = target: human EGFRvIII-His tag protein (extracellular domain Leu25-Ser378) (human) (UniProt P00533); remark: listed apart in the source
[15] = target: human EGFR endogenously expressed on A431 cells (human) (UniProt P00533)
[16] = target: murine EGFR protein (murine) (UniProt Q01279)
[17] = target: monkey EGFR protein (commercial, SB, catalog number 90285-C08H) (monkey); assay: ELISA, coated monkey EGFR protein, antibody 1 nM
[18] = target: human EGFRvIII-His tag protein (extracellular domain Leu25-Ser378) (human) (UniProt P00533); remark: listed apart in the source
[19] = target: murine EGFR protein (murine) (UniProt Q01279); remark: listed apart in the source
[20] = target: murine EGFR protein (murine) (UniProt Q01279); remark: listed apart in the source
[21] = target: monkey EGFR protein (commercial, SB, catalog number 90285-C08H) (monkey); assay: ELISA, coated monkey EGFR protein, antibody 0.0001 nM
[22] = target: monkey EGFR protein (commercial, SB, catalog number 90285-C08H) (monkey); assay: ELISA, coated monkey EGFR protein, antibody 0.001 nM
[23] = target: human EGFRvIII-His tag protein (extracellular domain Leu25-Ser378) (human) (UniProt P00533); remark: listed apart in the source
[24] = target: murine EGFR protein (murine) (UniProt Q01279); remark: listed apart in the source
[25] = target: monkey EGFR protein (commercial, SB, catalog number 90285-C08H) (monkey); assay: ELISA, coated monkey EGFR protein, antibody 0.1 nM
[26] = target: human EGFRvIII-His tag protein (extracellular domain Leu25-Ser378) (human) (UniProt P00533); remark: listed apart in the source
[27] = target: human EGFRvIII-His tag protein (extracellular domain Leu25-Ser378) (human) (UniProt P00533); remark: listed apart in the source
[28] = target: human EGFRvIII-His tag protein (extracellular domain Leu25-Ser378) (human) (UniProt P00533); remark: listed apart in the source
[29] = target: monkey EGFR protein (commercial, SB, catalog number 90285-C08H) (monkey); assay: ELISA, coated monkey EGFR protein, antibody 0.01 nM
[30] = target: cynomolgus monkey EGFR on HEK293T-monkey EGFR cells (cynomolgus monkey); assay: FACS, HEK293T-monkey EGFR cells
[31] = target: cynomolgus monkey EGFR on HEK293T-monkey EGFR cells (cynomolgus monkey); assay: FACS, HEK293T-monkey EGFR cells (specificity assay)
[32] = target: murine EGFR protein (murine) (UniProt Q01279); remark: listed apart in the source
[33] = target: murine EGFR protein (murine) (UniProt Q01279); remark: listed apart in the source
[34] = target: human EGFRvIII-His tag protein (extracellular domain Leu25-Ser378) (human) (UniProt P00533); remark: listed apart in the source
[35] = target: murine EGFR protein (murine) (UniProt Q01279); remark: listed apart in the source
[36] = target: murine EGFR protein (murine) (UniProt Q01279); remark: listed apart in the source
[37] = target: monkey EGFR protein (commercial, SB, catalog number 90285-C08H) (monkey); assay: ELISA, coated monkey EGFR protein, antibody 0 nM (blank)
[38] = target: monkey EGFR protein (commercial, SB, catalog number 90285-C08H) (monkey); assay: ELISA, coated monkey EGFR protein, antibody 10 nM

anti-hel-hIgG1 (antibody) showed a Max MFI [1] of 159, an Average fluorescence intensity [2] of 35.4 and an OD450 [3] of 0.21. The Average fluorescence intensity [4] was 74, the Average fluorescence intensity [5] was 1560 and the Average fluorescence intensity [6] was 1560. The Average fluorescence intensity [7] was 35.4, the Average fluorescence intensity [8] was 1560 and the OD450 [9] was 0.71. It also gave an OD450 [10] of 0.05 and an OD450 [11] of 0.07.
For “anti-hel-hIgG1 (negative control antibody against hen egg lysozyme)”, the OD450 [12] was 0.22, the OD450 [13] was 0.71 and the OD450 [14] was 0.19. It also gave a Max MFI [15] of 199, an OD450 [16] of 0.05 and an OD450 [17] of 0.21. It also gave an OD450 [18] of 0.13, an OD450 [19] of 0.05 and an OD450 [20] of 0.06. The OD450 [21] was 0.06, the OD450 [22] was 0.09 and the OD450 [23] was 0.09. The OD450 [24] was 0.06, the OD450 [25] was 0.09 and the OD450 [26] was 0.6. The OD450 [27] was 0.07, the OD450 [28] was 0.07 and the OD450 [29] was 0.19. The Max MFI [30] was 240, the Max MFI [31] was 141 and the OD450 [32] was 0.12. For the same substance, the OD450 [33] was 0.06, the OD450 [34] was 0.08 and the OD450 [35] was 1.16. It also gave an OD450 [36] of 0.06, an OD450 [37] of 0.07 and an OD450 [38] of 0.13.
